Assay results as given in publication PMC12089419, “Synergistic regulation of DACH1 stability by acetylation and deubiquitination promotes colorectal cancer progression” (Cell Death & Disease, 2025).

Biological target: T1, GST-USP7 (UniProt Q93009 1-1102)
T1 construct: USP7, cloned in pGEX-4T-1; also called GST-tagged USP7; source: plasmid in pGEX-4T-1
Assay: pull-down; purified DACH1 incubated with GST or GST-USP7 conjugated with GSH-Sepharose, followed by Coomassie blue staining
Settings: both partners purified

T1 sequence (Q93009 whole entry): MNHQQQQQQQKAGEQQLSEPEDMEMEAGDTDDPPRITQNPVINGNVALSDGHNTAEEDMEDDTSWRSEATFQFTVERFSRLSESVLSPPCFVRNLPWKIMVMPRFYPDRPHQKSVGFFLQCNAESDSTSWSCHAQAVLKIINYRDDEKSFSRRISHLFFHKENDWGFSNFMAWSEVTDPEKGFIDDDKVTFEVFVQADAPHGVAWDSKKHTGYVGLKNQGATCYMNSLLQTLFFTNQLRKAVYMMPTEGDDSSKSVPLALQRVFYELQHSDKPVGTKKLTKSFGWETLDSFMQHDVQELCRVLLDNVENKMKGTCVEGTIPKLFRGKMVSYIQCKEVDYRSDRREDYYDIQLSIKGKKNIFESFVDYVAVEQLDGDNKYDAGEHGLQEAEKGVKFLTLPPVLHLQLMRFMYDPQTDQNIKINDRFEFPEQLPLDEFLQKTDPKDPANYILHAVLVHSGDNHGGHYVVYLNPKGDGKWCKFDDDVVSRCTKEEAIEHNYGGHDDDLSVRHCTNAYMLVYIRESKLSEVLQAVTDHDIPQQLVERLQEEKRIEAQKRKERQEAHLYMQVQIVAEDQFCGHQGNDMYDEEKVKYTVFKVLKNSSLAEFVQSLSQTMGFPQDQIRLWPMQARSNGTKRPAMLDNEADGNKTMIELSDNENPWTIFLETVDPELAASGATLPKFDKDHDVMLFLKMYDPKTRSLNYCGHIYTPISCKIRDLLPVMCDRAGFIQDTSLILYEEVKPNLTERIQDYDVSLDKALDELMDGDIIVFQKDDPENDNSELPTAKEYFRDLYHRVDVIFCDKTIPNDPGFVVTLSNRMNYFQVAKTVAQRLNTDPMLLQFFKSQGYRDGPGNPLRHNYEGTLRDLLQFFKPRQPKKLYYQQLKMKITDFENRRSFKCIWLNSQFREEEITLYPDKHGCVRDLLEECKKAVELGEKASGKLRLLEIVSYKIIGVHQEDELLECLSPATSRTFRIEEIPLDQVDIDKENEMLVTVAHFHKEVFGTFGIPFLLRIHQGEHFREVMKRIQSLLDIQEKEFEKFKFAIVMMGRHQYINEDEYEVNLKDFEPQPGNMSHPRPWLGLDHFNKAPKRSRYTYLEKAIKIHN

B1: Myc-DACH1-FL (natural protein, human, UniProt Q9UI36 1-758, looked up)
chain: MAVPAALIPPTQLVPPQPPISTSASSSGTTTSTSSATSSPAPSIGPPASSGPTLFRPEPIASAAAAAATVTSTGGGGGGGGSGGGGGSSGNGGGGGGGGGGSNCNPNLAAASNGSGGGGGGISAGGGVASSTPINASTGSSSSSSSSSSSSSSSSSSSSSSSSCGPLPGKPVYSTPSPVENTPQNNECKMVDLRGAKVASFTVEGCELICLPQAFDLFLKHLVGGLHTVYTKLKRLEITPVVCNVEQVRILRGLGAIQPGVNRCKLISRKDFETLYNDCTNASSRPGRPPKRTQSVTSPENSHIMPHSVPGLMSPGIIPPTGLTAAAAAAAAATNAAIAEAMKVKKIKLEAMSNYHASNNQHGADSENGDMNSSVGSSDGSWDKETLPSSPSQGPQASITHPRMPGARSLPLSHPLNHLQQSHLLPNGLELPFMMMPHPLIPVSLPPASVTMAMSQMNHLSTIANMAAAAQVQSPPSRVETSVIKERVPDSPSPAPSLEEGRRPGSHPSSHRSSSVSSSPARTESSSDRIPVHQNGLSMNQMLMGLSPNVLPGPKEGDLAGHDMGHESKRMHIEKDETPLSTPTARDSLDKLSLTGHGQPLPPGFPSPFLFPDGLSSIETLLTNIQGLLKVAIDNARAQEKQVQLEKTELKMDFLRERELRETLEKQLAMEQKNRAIVQKRLKKEKKAKRKLQEALEFETKRREQAEQTLKQAASTDSLRVLNDSLTPEIEADRSGGRTDAERTIQDGRLYLKTTVMY
notes: DACH1, human, full length (FL), cloned in pcDNA3.1 or a lentiviral plasmid; the text calls it Myc-tagged DACH1; also called Myc-tagged DACH1; Myc-tagged FL DACH1; source: HEK293T or SW480, transfected, in lysate; HCT8, stably expressed, whole cell extracts
- binding result: binds
